From paper PMC12700559, “Structural basis for simvastatin-induced skeletal muscle weakness associated with type 1 ryanodine receptor T4709M mutation” (The Journal of Clinical Investigation, 2025) come the findings set out here.

The test deals with type 1 ryanodine receptor (RyR1), endogenous channel from mouse skeletal muscle (mouse (endogenous in mouse skeletal muscle)) (UniProt E9PZQ0). The test is described as follows: cryo-EM structure; endogenous RyR1 purified from mouse skeletal muscle, ~15 uM protomer, in CHAPS/DOPC buffer; with 5 mM EGTA only or with 10 mM ATP, 5 mM caffeine, 30 uM free Ca2+, with or without 10 mM simvastatin lactone; C4 symmetry imposed.

type 1 ryanodine receptor (RyR1), endogenous channel from mouse skeletal muscle, E9PZQ0 1-5035 (natural protein), sequence (E9PZQ0 whole entry): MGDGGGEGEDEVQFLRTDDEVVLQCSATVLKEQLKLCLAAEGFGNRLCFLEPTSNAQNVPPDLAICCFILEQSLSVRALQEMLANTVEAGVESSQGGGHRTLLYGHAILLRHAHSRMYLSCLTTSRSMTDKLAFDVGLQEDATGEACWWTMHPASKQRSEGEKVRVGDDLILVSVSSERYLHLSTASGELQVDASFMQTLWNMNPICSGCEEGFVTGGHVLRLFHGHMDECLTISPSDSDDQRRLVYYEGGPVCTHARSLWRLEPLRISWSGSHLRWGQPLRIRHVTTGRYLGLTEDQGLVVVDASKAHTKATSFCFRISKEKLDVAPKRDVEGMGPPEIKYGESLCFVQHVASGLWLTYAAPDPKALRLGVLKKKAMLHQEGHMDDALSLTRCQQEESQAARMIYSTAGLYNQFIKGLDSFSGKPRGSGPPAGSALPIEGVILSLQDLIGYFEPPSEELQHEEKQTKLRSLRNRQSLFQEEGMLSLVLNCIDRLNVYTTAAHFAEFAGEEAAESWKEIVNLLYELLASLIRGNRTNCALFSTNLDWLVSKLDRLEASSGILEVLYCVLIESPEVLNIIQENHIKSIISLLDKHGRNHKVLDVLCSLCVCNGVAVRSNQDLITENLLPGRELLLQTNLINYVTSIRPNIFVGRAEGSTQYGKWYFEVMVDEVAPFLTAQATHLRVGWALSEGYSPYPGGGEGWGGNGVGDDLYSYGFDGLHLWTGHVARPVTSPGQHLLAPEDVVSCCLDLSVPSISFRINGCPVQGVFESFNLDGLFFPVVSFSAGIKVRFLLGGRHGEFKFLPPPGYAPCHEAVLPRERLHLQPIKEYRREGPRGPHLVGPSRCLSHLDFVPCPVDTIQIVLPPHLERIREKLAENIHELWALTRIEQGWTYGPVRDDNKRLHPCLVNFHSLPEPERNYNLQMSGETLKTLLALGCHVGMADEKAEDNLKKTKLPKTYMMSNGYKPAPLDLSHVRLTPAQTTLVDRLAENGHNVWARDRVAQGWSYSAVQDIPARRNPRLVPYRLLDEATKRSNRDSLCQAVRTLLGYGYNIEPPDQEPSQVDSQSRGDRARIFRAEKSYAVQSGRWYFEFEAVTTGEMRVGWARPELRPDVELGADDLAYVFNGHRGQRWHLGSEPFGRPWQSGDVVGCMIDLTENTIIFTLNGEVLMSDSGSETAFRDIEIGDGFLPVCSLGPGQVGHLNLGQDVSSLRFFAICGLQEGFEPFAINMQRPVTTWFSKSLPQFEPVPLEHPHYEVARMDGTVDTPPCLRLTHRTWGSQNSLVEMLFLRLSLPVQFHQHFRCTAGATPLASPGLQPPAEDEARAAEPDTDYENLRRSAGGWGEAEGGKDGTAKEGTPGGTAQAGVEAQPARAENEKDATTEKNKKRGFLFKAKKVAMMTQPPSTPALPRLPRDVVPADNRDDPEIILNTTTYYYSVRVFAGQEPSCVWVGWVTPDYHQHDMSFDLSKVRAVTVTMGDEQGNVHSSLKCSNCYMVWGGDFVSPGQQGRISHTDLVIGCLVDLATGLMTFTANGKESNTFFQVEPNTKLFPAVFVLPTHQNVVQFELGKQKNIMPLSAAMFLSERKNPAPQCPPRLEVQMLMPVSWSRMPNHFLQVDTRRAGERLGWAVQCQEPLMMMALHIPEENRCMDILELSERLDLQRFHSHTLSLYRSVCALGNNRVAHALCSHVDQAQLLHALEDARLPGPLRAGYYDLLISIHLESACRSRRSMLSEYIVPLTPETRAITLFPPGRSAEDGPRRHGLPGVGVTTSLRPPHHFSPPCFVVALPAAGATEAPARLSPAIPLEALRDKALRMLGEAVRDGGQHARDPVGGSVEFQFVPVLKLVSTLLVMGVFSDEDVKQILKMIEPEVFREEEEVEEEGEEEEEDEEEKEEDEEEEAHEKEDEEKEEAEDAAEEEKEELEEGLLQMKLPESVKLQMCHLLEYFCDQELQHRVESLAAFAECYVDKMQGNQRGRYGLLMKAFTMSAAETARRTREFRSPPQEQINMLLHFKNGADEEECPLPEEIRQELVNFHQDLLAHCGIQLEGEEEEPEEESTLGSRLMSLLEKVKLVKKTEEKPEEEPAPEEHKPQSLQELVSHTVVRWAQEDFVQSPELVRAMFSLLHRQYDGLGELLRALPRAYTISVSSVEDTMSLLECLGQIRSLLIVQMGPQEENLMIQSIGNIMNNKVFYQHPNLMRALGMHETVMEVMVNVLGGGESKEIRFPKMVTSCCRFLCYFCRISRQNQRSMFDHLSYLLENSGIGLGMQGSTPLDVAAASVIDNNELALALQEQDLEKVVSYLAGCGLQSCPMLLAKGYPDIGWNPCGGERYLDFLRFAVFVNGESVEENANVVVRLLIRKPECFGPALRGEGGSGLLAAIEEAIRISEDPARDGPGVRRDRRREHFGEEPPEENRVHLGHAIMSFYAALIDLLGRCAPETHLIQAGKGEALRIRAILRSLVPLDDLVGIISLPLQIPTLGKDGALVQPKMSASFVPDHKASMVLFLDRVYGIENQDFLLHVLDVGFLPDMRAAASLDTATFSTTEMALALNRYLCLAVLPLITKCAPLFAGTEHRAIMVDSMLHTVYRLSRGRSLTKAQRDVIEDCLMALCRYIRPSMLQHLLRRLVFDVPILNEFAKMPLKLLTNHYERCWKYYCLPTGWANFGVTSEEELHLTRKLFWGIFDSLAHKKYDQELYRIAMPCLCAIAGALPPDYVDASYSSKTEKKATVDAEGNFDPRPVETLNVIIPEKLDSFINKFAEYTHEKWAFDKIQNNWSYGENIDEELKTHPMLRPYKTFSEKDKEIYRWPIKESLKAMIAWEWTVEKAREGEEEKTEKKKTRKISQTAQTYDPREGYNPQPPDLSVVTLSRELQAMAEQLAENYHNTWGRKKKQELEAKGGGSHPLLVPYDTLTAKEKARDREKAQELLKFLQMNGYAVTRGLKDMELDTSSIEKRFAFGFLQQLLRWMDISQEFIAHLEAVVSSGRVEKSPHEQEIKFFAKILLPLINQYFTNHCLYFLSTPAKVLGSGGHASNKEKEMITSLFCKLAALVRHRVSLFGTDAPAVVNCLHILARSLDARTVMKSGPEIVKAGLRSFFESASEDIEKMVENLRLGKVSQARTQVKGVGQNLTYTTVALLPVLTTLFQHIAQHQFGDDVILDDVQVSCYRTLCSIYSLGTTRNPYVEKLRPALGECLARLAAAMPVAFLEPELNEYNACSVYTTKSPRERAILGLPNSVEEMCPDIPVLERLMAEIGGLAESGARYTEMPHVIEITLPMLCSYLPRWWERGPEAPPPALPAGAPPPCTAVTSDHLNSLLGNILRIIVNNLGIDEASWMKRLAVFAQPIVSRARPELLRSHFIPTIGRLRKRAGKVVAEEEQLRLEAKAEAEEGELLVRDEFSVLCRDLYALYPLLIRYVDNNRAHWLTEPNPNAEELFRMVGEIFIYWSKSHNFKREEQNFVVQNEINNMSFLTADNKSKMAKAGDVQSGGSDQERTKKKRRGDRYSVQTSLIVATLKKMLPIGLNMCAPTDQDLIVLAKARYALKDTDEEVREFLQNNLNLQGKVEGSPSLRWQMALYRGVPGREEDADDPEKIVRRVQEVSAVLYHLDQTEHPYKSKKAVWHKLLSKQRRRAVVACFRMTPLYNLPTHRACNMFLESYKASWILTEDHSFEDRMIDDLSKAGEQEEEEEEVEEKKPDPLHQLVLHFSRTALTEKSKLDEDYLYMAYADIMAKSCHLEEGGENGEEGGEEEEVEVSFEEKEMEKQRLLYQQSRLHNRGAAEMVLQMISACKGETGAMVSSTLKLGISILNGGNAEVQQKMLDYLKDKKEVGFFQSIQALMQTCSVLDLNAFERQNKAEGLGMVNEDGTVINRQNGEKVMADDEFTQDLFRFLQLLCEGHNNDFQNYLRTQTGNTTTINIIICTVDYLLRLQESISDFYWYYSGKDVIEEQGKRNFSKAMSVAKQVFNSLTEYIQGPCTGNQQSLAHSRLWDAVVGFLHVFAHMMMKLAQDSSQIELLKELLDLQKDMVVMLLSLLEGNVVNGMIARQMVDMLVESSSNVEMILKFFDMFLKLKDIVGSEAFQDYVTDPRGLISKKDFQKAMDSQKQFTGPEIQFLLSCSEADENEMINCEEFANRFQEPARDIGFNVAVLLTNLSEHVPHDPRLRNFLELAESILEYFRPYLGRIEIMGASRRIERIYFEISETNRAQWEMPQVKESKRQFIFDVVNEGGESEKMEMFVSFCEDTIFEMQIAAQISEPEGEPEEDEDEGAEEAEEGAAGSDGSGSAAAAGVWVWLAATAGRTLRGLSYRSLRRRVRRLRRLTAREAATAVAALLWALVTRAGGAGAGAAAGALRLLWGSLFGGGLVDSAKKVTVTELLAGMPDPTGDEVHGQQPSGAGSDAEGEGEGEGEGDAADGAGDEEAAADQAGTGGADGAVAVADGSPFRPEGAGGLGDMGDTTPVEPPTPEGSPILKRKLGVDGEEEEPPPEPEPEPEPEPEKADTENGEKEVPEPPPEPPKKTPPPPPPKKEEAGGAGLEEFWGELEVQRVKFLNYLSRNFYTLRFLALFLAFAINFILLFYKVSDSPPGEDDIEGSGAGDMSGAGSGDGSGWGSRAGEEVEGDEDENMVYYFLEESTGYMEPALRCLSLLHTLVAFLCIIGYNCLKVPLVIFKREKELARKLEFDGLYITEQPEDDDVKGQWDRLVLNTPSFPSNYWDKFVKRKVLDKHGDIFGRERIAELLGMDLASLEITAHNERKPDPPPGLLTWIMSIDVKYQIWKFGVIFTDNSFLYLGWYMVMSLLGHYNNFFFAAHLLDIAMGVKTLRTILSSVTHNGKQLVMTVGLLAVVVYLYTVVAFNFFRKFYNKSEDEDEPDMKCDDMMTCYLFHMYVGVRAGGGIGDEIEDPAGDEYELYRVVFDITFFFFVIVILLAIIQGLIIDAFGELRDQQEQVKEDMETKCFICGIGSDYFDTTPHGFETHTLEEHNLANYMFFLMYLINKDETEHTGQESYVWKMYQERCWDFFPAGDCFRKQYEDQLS

One may read the stoichiometry N as a count of units in the complex or per binding partner. “type 1 ryanodine receptor (RyR1), endogenous channel from mouse skeletal muscle, E9PZQ0 1-5035 (natural protein)” displayed a stoichiometry N of 4.
